± gives the uncertainty stated by the source.

The text below walks through data of the supplement of paper PMC12042874.

This data set is described as follows: amyloid nucleation score (Sup35N fusion, yeast selection) (log enrichment); library NNK2; higher = more nucleation; inactive = no reads after selection. An outline of the steps: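 Plasmid inserts were Illumina-sequenced at input and output from psi-negative yeast expressing Sup35N fused to peptides of 20 random codons. The yeast were induced with 100 μM copper sulfate for 24 hours and grown 7 days at 30°C on medium lacking adenine and uracil, and sequences with under 100 input reads were excluded. Nucleation score is the DiMSum log enrichment of output over input reads, centred on the mode score of non-aggregating sequences.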

In the case of CQSAASVL, the amyloid nucleation score is -0.148 ± 0.31.

WFDWLVYSGLDHGRFIEVLK registered an amyloid nucleation score of -0.432 ± 0.74.

LIRFTLMSTFEITIMSFRCV: the amyloid nucleation score worked out at 0.934 ± 0.2.

In the case of LRSDESRYPAFHRESSVRSR, the amyloid nucleation score was found to be 0.377 ± 0.3.

Substance IYYGSRISPTWAGRLLCGER gave an amyloid nucleation score of -0.185 ± 0.44.

In turn, YRLYDRENSAICYISYTLLL registered an amyloid nucleation score of 2.36 ± 0.069.

GLHLHSVAEYVCWGTPLSRL came in with an amyloid nucleation score of 0.119 ± 0.76.

HITRGVVPTAV registered an amyloid nucleation score of 0.655 ± 0.74.

YWKPCLVAVGWSTQLRCCPV: the amyloid nucleation score is -0.324 ± 0.3.

Turning to RATRLIRGTWYKKLKRVARI, the amyloid nucleation score came to 1.32 ± 0.18.

STMREQRRRAWRKDCDVIKV displayed an amyloid nucleation score of 1.84 ± 0.22.

In the case of VVSERRAFVRGVFDWIITLD, the amyloid nucleation score was -0.02 ± 0.55.

On to PDGAWARLSKSGAEAYLSNF, for which the amyloid nucleation score was -0.299 ± 1.1.

In the case of DQYYNH, the amyloid nucleation score worked out at 0.29 ± 0.77.

WECLGTCDVGSCLTWRIGGR displayed an amyloid nucleation score of 2.82 ± 0.18.

As to LIQSFSVLAMHDRLGCWRLR, the amyloid nucleation score was determined as 2.74 ± 0.12.

IATTATSVGSVR: the amyloid nucleation score worked out at 0.924 ± 0.25.

Regarding SLMIHGHLFRIRVRSLRGRI, the amyloid nucleation score was -0.714 ± 0.76.

HYRISLSIPHIDHAKAQALL returned an amyloid nucleation score of -0.603 ± 1.

On to PFFVV, for which the amyloid nucleation score is -0.791 ± 1.1.

Substance RLRNI displayed an amyloid nucleation score of 0.399 ± 0.2.

In the case of LISVSTRKCVIIG, the amyloid nucleation score is -0.326 ± 0.45.

On to NFQVNMFVMF, for which the amyloid nucleation score stood at 8.986 ± 0.027.

In turn, NYFVYNFLVV had an amyloid nucleation score of 4.95 ± 0.099.

Take SVFCRKLTLVAGGDARRDCK: the amyloid nucleation score stood at 0.497 ± 0.57.

GYASTDEVMTLRMYLTSIYT came in with an amyloid nucleation score of -0.187 ± 0.55.

For the substance NLFYLARSMLINLQMYKTER, the amyloid nucleation score came to 4.46 ± 0.08.

As for RLGRC, the amyloid nucleation score was 0.94 ± 0.33.

In turn, TRFTYCFVVRNLVTRNRPIS came in with an amyloid nucleation score of -0.646 ± 0.22.

The substance FSLCANCNIMMPRSFLSYT displayed an amyloid nucleation score of 5.24 ± 0.078.

In the case of FSSSWKGRFVNNSRVVGKSR, the amyloid nucleation score is -0.367 ± 0.43.

KTMNPYDFSLFIATIMKSLN yielded an amyloid nucleation score of -0.476 ± 1.1.

In the case of ISHYAYQ, the amyloid nucleation score was 0.811 ± 0.57.

With HWSFS, the amyloid nucleation score was found to be 2.85 ± 0.17.

On to RYALFSARIYSLYWLWFCIF, for which the amyloid nucleation score entry is “inactive”.

As for YWANGSDEDSVGGNIDAVGD, the amyloid nucleation score was -1.07 ± 0.55.

Consider SRVTYMRATDSMTTVVFWGV, for which the amyloid nucleation score was determined as 5.31 ± 0.064.

The substance CLGNVCNSFNWLDVRACVWR came in with an amyloid nucleation score of 1.52 ± 0.23.

The substance DLGPLFDCCSVYGGAECCIE returned an amyloid nucleation score of -0.1 ± 0.49.

HHVGGMTV: the amyloid nucleation score came out at 0.691 ± 0.8.

For the substance AVPMMSWSFIVSYVGRNNSM, the amyloid nucleation score is 1.7 ± 0.19.

The substance VSPNPIWIVEKWPI displayed an amyloid nucleation score of -1.63 ± 0.62.

Take YSDMSFAVALAVSWVQAGAW: the amyloid nucleation score was -0.618 ± 0.63.

As for DEEVSWRIG, the amyloid nucleation score came out at 0.196 ± 0.46.

With PGRDTVTLLHLCHFGVGSGF, the amyloid nucleation score is 0.165 ± 1.

With GMVFRRWREMYSSFVDRTLR, the amyloid nucleation score came out at 0.799 ± 0.51.

YVGEKRGSVSEYLLHLLSTG: the amyloid nucleation score entry was “inactive”.

ERRRYLALLQMSMCATGLCY yielded an amyloid nucleation score of -0.219 ± 0.43.

Take DLMDVEGLSGPPLRSMQVLK: the amyloid nucleation score is 5.003 ± 0.05.

Substance LNMTSFAVKLEANYL gave an amyloid nucleation score of -0.565 ± 1.1.

Consider VQISWRFVPWI, for which the amyloid nucleation score is 1.79 ± 0.12.

As to RLSGRVTCSVNVGHSLKGTV, the amyloid nucleation score worked out at 4.529 ± 0.045.

YVNVL yielded an amyloid nucleation score of 0.479 ± 0.49.

As to IFSTPKTLDPVFYCL, the amyloid nucleation score result was “inactive”.

In the case of FWRKVCVDDRTT, the amyloid nucleation score was -0.121 ± 0.43.

FRFVEFNNSGNVCPLIFTLS registered an amyloid nucleation score of -0.266 ± 0.65.

In turn, VCYKIVKTSYNSFWDF registered an amyloid nucleation score of 4.39 ± 0.1.

In turn, IYTSSGL gave an amyloid nucleation score of -0.902 ± 0.54.

For NLGHTCVCFKRIRSYFFSYR, the amyloid nucleation score is -0.94 ± 0.49.

As for NWDSINFYRAVSYCDHIFYV, the amyloid nucleation score result was “inactive”.

In turn, DLAFNFASWLCRAKFNGSRC had an amyloid nucleation score of 5.04 ± 0.09.

For HCVIQSSYLRD, the amyloid nucleation score was -0.337 ± 0.54.

In the case of YGQAMWASIFMIYRLPKTLR, the amyloid nucleation score was -1.13 ± 0.28.

Consider GIWWQHNGFEYDFGNLSC, for which the amyloid nucleation score was -0.165 ± 0.35.

Turning to LLGLHELSTS, the amyloid nucleation score came out at 0.334 ± 0.46.

On to WCSCQPSFSKKHGEFYNLFL, for which the amyloid nucleation score stood at 9.215 ± 0.032.

Substance QFSYLYLVMASRSLTAVIIV had an amyloid nucleation score of -0.887 ± 0.3.

NNKLSRV returned an amyloid nucleation score of -0.661 ± 1.1.

The substance LIDRIKWEGPFRIRWLFSWF displayed an amyloid nucleation score of 0.566 ± 0.66.

In the case of KFTLCWRTRMAFMSPWLMRI, the amyloid nucleation score result was “inactive”.

In the case of IGIDRL, the amyloid nucleation score is -0.069 ± 0.49.

Consider TLTYYPFMRYAFTVSLWFLF, for which the amyloid nucleation score was -1.83 ± 1.1.

LNTSFLMV returned an amyloid nucleation score of -1.05 ± 0.49.

In the case of VAIGLLVEGGFFIHRNICLW, the amyloid nucleation score is -1.36 ± 0.62.

In turn, FAYSLTPFRWSRDLLMSPLG showed an amyloid nucleation score of 0.104 ± 0.28.

In turn, IRSNIGNSWNTLIFVYCCYT returned an amyloid nucleation score of 6.415 ± 0.049.

As to DCLLCFFGSHSILVRPILKV, the amyloid nucleation score result was “inactive”.

The substance FWLSTWSFNVVYPDGEAQKS returned an amyloid nucleation score of -0.303 ± 0.48.

For SQCARKYVVASVSMLTDVTH, the amyloid nucleation score was 1.13 ± 0.31.

NFTSGGRRHNVERVGHLGLV had an amyloid nucleation score of -0.168 ± 0.76.

In the case of LCRCNATRGGCCLFLGCFWL, the amyloid nucleation score amounted to 2.73 ± 0.09.

As for GCIIFGYLG, the amyloid nucleation score stood at 1.57 ± 0.16.

Consider YYFNEREK, for which the amyloid nucleation score result was “inactive”.

Take RFLTCGNFMR: the amyloid nucleation score turned out to be 0.214 ± 0.74.

Regarding GRDFCFEVSHYVVMFAFLRD, the amyloid nucleation score is 0.114 ± 0.63.

On to HSLLSLLVVFYLQDRSRVIC, for which the amyloid nucleation score worked out at 0.848 ± 0.13.

Turning to ASNAFRSGYWQGERHERMRL, the amyloid nucleation score was found to be 1.07 ± 0.14.

KRGCNQHFNSMRYLVMFLVS came in with an amyloid nucleation score of -0.915 ± 0.62.

The substance DCAWNFWFSLVYRLVISGHS registered an amyloid nucleation score of -0.38 ± 0.6.

As to NPSLELYKYISAIDMGINPP, the amyloid nucleation score result is “inactive”.

In turn, SCSRWHYESSYLYIDTLEDY yielded an amyloid nucleation score of 0.347 ± 0.55.

Take DCSMVIMYFASGRSRALSNR: the amyloid nucleation score is 4.48 ± 0.067.

In turn, DPQRVFFWLPYMNLYQHEPF registered an amyloid nucleation score of 0.025 ± 1.1.

Substance FRVTIMVIQNSPTVSPGLAG had an amyloid nucleation score of 4.31 ± 0.08.

VVHDNW had an amyloid nucleation score of 0.29 ± 0.22.

KSCCDGRNYDKIPRVRSSRT returned an amyloid nucleation score of 0.206 ± 0.43.

With ARVRVYRWWTLATTWGRVGF, the amyloid nucleation score worked out at 2.85 ± 0.14.

GRCILGCHPATRTGMLRYFE: the amyloid nucleation score is -0.087 ± 1.

Regarding IRCGREGLRR, the amyloid nucleation score result was “inactive”.

With LSIGSQAI, the amyloid nucleation score worked out at 0.501 ± 0.38.

With NTFWLGFPYSLLQALCHALD, the amyloid nucleation score came to 0.447 ± 0.53.

Substance VTMKHVAGSSHDCPYAILTN displayed an amyloid nucleation score of 0.082 ± 1.

On to VNFLWE, for which the amyloid nucleation score was -0.447 ± 1.1.

Take KYVCVI: the amyloid nucleation score turned out to be 0.809 ± 0.48.
